Results: patent publication US20070298997A1, “Compounds useful in treating diabetic microvascular complications and age-related macular degeneration” (priority 2003, published 2007)

Experiments:
pericytes = assay: Quantification of viable cells by MTT assay, pericytes; assay type: cell-based, bovine; details: 5-160 nM, 72 h, P>0.05
Method: (§1) FIG. 2 illustrates the specific inhibition of endothelial cell proliferation by recombinant kallistatin. RCEC were treated with recombinant kallistatin at concentrations of 5,10, 20, 40, 80 and 160 nM for 72 h. Viable cells were quantified by MTT assay. […] This effect appeared to be kallistatin concentration-dependent, with an apparent IC50 of 50 nM (FIG. 2) which is similar to that of K5, a known angiogenic inhibitor (Zhang et al., 2001).
(§2) Quantification of viable cells: Cells were plated in 12-well plates in triplicate and cultured in the growth medium until they reached 60-70% of confluency. The culture medium was replaced with a medium containing 1% fetal bovine serum (FBS). Recombinant kallistatin was added to the cover medium to various concentrations and incubated with the cells for 72 h. The viable cells were quantified by the MTT (3-[4,5-dimethylthiazol-2-yl]-2,5-dephenyl tetrazolium bromid, Roche, Mannheim, Germany) assay following a protocol recommended by the manufacturer. The effect of kallistatin on viable cell number was analyzed using Student's t test.

retina = assay: Retinal toxicity after intravitreal injection (histology of retinal sections); assay type: in vivo, Brown Norway rats
Method: (§3) Induction of retinal neovascularization and intravitreal injection of kallistatin: Retinal neovascularization was induced as described by Smith et al. (Smith et al., 1994) with some modifications. Briefly, newborn pigmented Brown Norway rats at postnatal day 7 (P7) were exposed to hyperoxia (75% O2) for 5 days and then normoxia. Animals were anesthetized, and kallistatin was injected into the vitreous of the right eye through the pars plana using a glass capillary. The left eye received the same volume of PBS as the control. After injection, the animals were kept in normoxia for another 5 days for further analyses.

[1] = tested on: vascular permeability in the retina, iris and choroid; assay: Vascular permeability by Evans blue leakage in OIR rats; assay type: in vivo, Brown Norway rats
Method: Next, the effect of kallistatin on vascular permeability was determined. At P14, two days after the rats were returned to normoxia, the OIR rats received an intravitreal injection of 3 μl of kallistatin of concentrations of 2.4, 4.8 and 9.6 mg/ml in the right eye (4 animals per dose group), and the same volume of PBS in the left. Two days after the kallistatin injection (P16), vascular permeability was measured by the Evans blue leakage method. […] Kallistatin injection decreased vascular permeability in a dose-dependent manner in the retina, iris and choroid of the hyperoxia-treated rats (FIG. 6).
Measurement of vascular permeability: Vascular permeability was quantified by measuring albumin leakage from blood vessels into the retina, iris and choroid using Evans blue following a documented protocol (Xu et al., 2001) with minor modifications. Evans blue dye (Sigma, St. Louis, Mo.) was dissolved in normal saline (30 mg/ml), sonicated for 5 min and filtered through a 0.45-μm filter (Millipore, Bedford, Mass.). The rats were anesthetized, and Evans blue (30 mg/kg) was injected over 10 seconds through the femoral vein using a glass capillary under microscopic inspection. Evans blue non-covalently binds to plasma albumin in the blood stream (Radius et al., 1980). Immediately after Evans blue infusion, the rats turned visibly blue, confirming their uptake and distribution of the dye. The rats were kept on a warm pad for 2 h to ensure the complete circulation of the dye. Then the chest cavity was opened, and the rats were perfused via the left ventricle with 1% paraformaldehyde in citrate buffer (pH=4.2) which was pre-warmed to 37° C. to prevent vasoconstriction. The perfusion lasted 2 min under the physiological pressure of 120 mmHg to clear the dye from the vessel. Immediately after perfusion, the eyes were enucleated and the retina, iris and choroid were carefully dissected under an operating microscope. Evans blue dye was extracted by incubating each sample in 150 μl formamide for 18 h at 70° C. The extract was centrifuged (TL; Beckman) at 70,000 rpm (Rotor type: TLA 100.3) for 20 min at 4° C. Absorbance was measured using 100 μl of the supernatant at 620 nm. The concentration of Evans blue in the extracts was calculated from a standard curve of Evans blue in formamide and normalized by the total protein concentration in each sample. Results were expressed in micrograms of Evans blue per milligrams of total protein content.

VEGF [2] = assay: Retinal VEGF levels in OIR rats by Western blot; assay type: in vivo, Brown Norway rats; details: intravitreal injection of 25 μg, P<0.01
Method: The effect of kallistatin on VEGF expression was also examined in vivo. After intravitreal injection of 25 μg kallistatin, VEGF levels were determined in the retina with OIR.
as §3
Western blot analysis: One hundred micrograms of total protein were used for Western blot analysis of VEGF using an ECL detection kit (Amersham International plc, Piscataway, N.J.) (Gao et al., 2001). The same membrane was stripped and re-blotted with an antibody specific to β-actin. VEGF levels were normalized by β-actin.

VEGF [3] = assay: VEGF in the conditioned medium of RCEC by ELISA; assay type: cell-based, bovine; details: RCEC under hypoxia, 24 h, 5-80 nM
Method: FIG. 9 illustrates down-regulation of VEGF expression by kallistatin. As increased VEGF levels in the retina and vitreous play a key role in the development of retinal neovascularization, the effect of kallistatin on the expression of VEGF in cultured RCEC was determined. VEGF secreted into the conditioned medium was measured by VEGF ELISA and normalized by total protein concentration in the medium.
Measurement of VEGF in the conditioned medium of RCEC by ELISA: RCEC were seeded in T75 flasks in endothelial cell growth medium and cultured in a CO2 incubator to reach 60-70% confluency. The cells were washed 3 times with PBS and the growth medium replaced by a serum-free medium containing bFGF (GIBCO-BRL, Gaithersburg, Md.). Kallistatin was added to the medium to various concentrations and incubated with the cells for 24 h under normoxia or hypoxia (in a chamber that was perfused with a mixture of 95% N2+5% CO2). The conditioned medium was harvested for VEGF ELISA and the cells were used for Western blot analysis. The conditioned medium was centrifuged and the protein concentration in the supernatant was measured with BioRad protein assay. VEGF concentration was measured using a VEGF ELISA kit (R& D systems, Minneapolis, Minn.) and normalized by total protein concentration in the medium.

[4] = tested on: rat Müller cell line, rMC-1; assay: Quantification of viable cells by MTT assay, Müller cell line; assay type: cell-based; details: 5-160 nM, 72 h, P>0.05
Method: as §1, §2

[5] = 3 μl of 4.8 mg/ml intravitreal, P<0.05
[6] = 3 μl of 9.6 mg/ml intravitreal at P14, measured P16, P<0.01

B1: kallistatin: Recombinant His-tagged rat kallistatin (serpin, SEQ ID NO:1) expressed in E. coli and affinity-purified (protein, listed as Homo sapiens)
chain: DGILGRDTLPHEDQGKGRQLHSLTLASINTDFTLSLYKKLALRNPDKNVVFSPLSISAALAILSLGAKDSTMEEILEVLKFNLTEITEEEIHHQGFGHLLQRLSQPEDQAEINTGSALFIDKEQPILSEFQEKTRALYQAEAFVADFKQCNEAKKFINDYVSNQTQGKIAELFSELDERTSMVLVNYLLFKGKWKVPFNPNDTFESEFYLDEKRSVKVPMMKIKDLTTPYIRDEELSCSVLELKYTGNASALFILPDQGKMQQVESSLQPETLKKWKDSLRPRIISELRMPKFSISTDYNLEEVLPELGIRKIFSQQADLSRITGTKNLHVSQVVHKAVLDVDETGTEGAAATAVTAALKSLPQTIPPLNFNRPFMLVITDNNGQSVFFMGKVTNPM
modifications: His tag
With B1 the “inhibition of pericytes (viable cells)” value (pericytes) was “did not result in any significant inhibition”, the “inflammatory response or toxicity to retinal tissues and normal vasculature” value (retina; intravitreal injection) was “does not cause any detectable inflammatory response or toxicity” and the “histological evidence of retinal toxicity” value (retina; retinal sections after intravitreal injection) was “No apparent histological evidence of retinal toxicity”. For the same molecule, the “vascular permeability, choroid” value ([1]; 3 μl of 2.4 mg/ml intravitreal) was “did not show any significant effect”, the “vascular permeability, iris” value ([1]; 3 μl of 2.4 mg/ml intravitreal) was “did not show any significant effect” and the “vascular permeability, retina” value ([1]; 3 μl of 2.4 mg/ml intravitreal) was “did not show any significant effect”. The “vascular leakage, choroid” value ([1]; 3 μl of 4.8 mg/ml intravitreal) was “not in the choroid”, the “vascular leakage, iris” value [1, 5] was “significantly decreased vascular leakage” and the “vascular leakage, retina” value [1, 5] was “significantly decreased vascular leakage”. The “vascular permeability, iris” value [1, 6] was “significant decrease in permeability”, the “vascular permeability, retina” value [1, 6] was “significant decrease in permeability” and the “vascular permeability, choroid” value ([1]; 3 μl of 9.6 mg/ml intravitreal at P14, measured P16, P<0.05) was “significant decrease in permeability”. The “retinal VEGF levels, % of the control” value (VEGF [2]) was ~35 % of the control, the “VEGF secreted into the conditioned medium” value (VEGF [3]) was “reduced VEGF in the medium” and the “inhibition of the Müller cell line (viable cells)” value [4] was “did not result in any significant inhibition”.
